# ± gives the uncertainty stated by the source.
# B1: Activity-dependent neuroprotector homeobox protein, residues 770 to 810; numbered along this chain, Q9H2P0 (parent)
# chain: FLTKYFNKQPYPTRREIEKLAASLWLWKSDIASHFSNKRKK
# Variants of: B1
# Assay: abundance fitness (aPCA) (normalised: wild type 0, dead -1); higher = more abundant; growth selection in yeast, the domain comes from the species named
# Details: Homo sapiens
row,Variant,abundance fitness
1,FLTKYFNVQPYPTRREIEKLAASLWLWKSDIASHFSNKRKK,-1.15 ± 0.12
2,FLTKYFNSQPYPTRREIEKLAASLWLWKSDIASHFSNKRKK,-0.995 ± 0.074
3,FLTKYFNYQPYPTRREIEKLAASLWLWKSDIASHFSNKRKK,-0.554 ± 0.1
4,FLTKYFNDQPYPTRREIEKLAASLWLWKSDIASHFSNKRKK,-0.325 ± 0.076
5,FLTKYFNWQPYPTRREIEKLAASLWLWKSDIASHFSNKRKK,-0.942 ± 0.18
6,FLTKYFNNQPYPTRREIEKLAASLWLWKSDIASHFSNKRKK,-0.362 ± 0.066
7,FLTKYFNLQPYPTRREIEKLAASLWLWKSDIASHFSNKRKK,-1.02 ± 0.097
8,FLTKYFNHQPYPTRREIEKLAASLWLWKSDIASHFSNKRKK,-1.09 ± 0.1
9,FLTKYFNAQPYPTRREIEKLAASLWLWKSDIASHFSNKRKK,-1.12 ± 0.094
10,FLTKYFNTQPYPTRREIEKLAASLWLWKSDIASHFSNKRKK,-0.951 ± 0.094
11,FLTKYFNEQPYPTRREIEKLAASLWLWKSDIASHFSNKRKK,-0.634 ± 0.14
12,FLTKYFNIQPYPTRREIEKLAASLWLWKSDIASHFSNKRKK,-1.43 ± 0.19
13,FLTKYFNMQPYPTRREIEKLAASLWLWKSDIASHFSNKRKK,-0.639 ± 0.33
14,FLTKYFNRQPYPTRREIEKLAASLWLWKSDIASHFSNKRKK,-0.22 ± 0.051
15,FLTKYFNPQPYPTRREIEKLAASLWLWKSDIASHFSNKRKK,-1.11 ± 0.13
16,FLTKYFNQQPYPTRREIEKLAASLWLWKSDIASHFSNKRKK,-0.858 ± 0.12
17,FLTKYFNFQPYPTRREIEKLAASLWLWKSDIASHFSNKRKK,-1.13 ± 0.18
18,FLTKYFNGQPYPTRREIEKLAASLWLWKSDIASHFSNKRKK,-0.217 ± 0.077
19,FLTKYFNKQPYVTRREIEKLAASLWLWKSDIASHFSNKRKK,-0.584 ± 0.088
20,FLTKYFNKQPYETRREIEKLAASLWLWKSDIASHFSNKRKK,0.059 ± 0.091
21,FLTKYFNKQPYFTRREIEKLAASLWLWKSDIASHFSNKRKK,-0.402 ± 0.12

row,Variant,abundance fitness
1,FLTKYFNKQPYDTRREIEKLAASLWLWKSDIASHFSNKRKK,0.092 ± 0.098
2,FLTKYFNKQPYRTRREIEKLAASLWLWKSDIASHFSNKRKK,-0.128 ± 0.061
3,FLTKYFNKQPYMTRREIEKLAASLWLWKSDIASHFSNKRKK,-0.114 ± 0.13
4,FLTKYFNKQPYGTRREIEKLAASLWLWKSDIASHFSNKRKK,0.099 ± 0.051
5,FLTKYFNKQPYATRREIEKLAASLWLWKSDIASHFSNKRKK,0.048 ± 0.059
6,FLTKYFNKQPYSTRREIEKLAASLWLWKSDIASHFSNKRKK,-0.102 ± 0.061
7,FLTKYFNKQPYKTRREIEKLAASLWLWKSDIASHFSNKRKK,0.062 ± 0.21
8,FLTKYFNKQPYWTRREIEKLAASLWLWKSDIASHFSNKRKK,-0.235 ± 0.087
9,FLTKYFNKQPYQTRREIEKLAASLWLWKSDIASHFSNKRKK,-0.036 ± 0.091
10,FLTKYFNKQPYTTRREIEKLAASLWLWKSDIASHFSNKRKK,-0.142 ± 0.079
11,FLTKYFNKQPYLTRREIEKLAASLWLWKSDIASHFSNKRKK,-0.22 ± 0.082
12,FLTKYFSKQPYPTRREIEKLAASLWLWKSDIASHFSNKRKK,-0.107 ± 0.049
13,FLTKYFFKQPYPTRREIEKLAASLWLWKSDIASHFSNKRKK,-1.24 ± 0.32
14,FLTKYFPKQPYPTRREIEKLAASLWLWKSDIASHFSNKRKK,0.017 ± 0.046
15,FLTKYFYKQPYPTRREIEKLAASLWLWKSDIASHFSNKRKK,-0.712 ± 0.12
16,FLTKYFCKQPYPTRREIEKLAASLWLWKSDIASHFSNKRKK,-0.455 ± 0.15
17,FLTKYFTKQPYPTRREIEKLAASLWLWKSDIASHFSNKRKK,-0.215 ± 0.053
18,FLTKYFMKQPYPTRREIEKLAASLWLWKSDIASHFSNKRKK,-0.76 ± 0.12
19,FLTKYFGKQPYPTRREIEKLAASLWLWKSDIASHFSNKRKK,-0.365 ± 0.067
20,FLTKYFAKQPYPTRREIEKLAASLWLWKSDIASHFSNKRKK,-0.145 ± 0.053
21,FLTKYFIKQPYPTRREIEKLAASLWLWKSDIASHFSNKRKK,-1.17 ± 0.2

row,Variant,abundance fitness
1,FLTKYFRKQPYPTRREIEKLAASLWLWKSDIASHFSNKRKK,-0.174 ± 0.045
2,FLTKYFWKQPYPTRREIEKLAASLWLWKSDIASHFSNKRKK,-0.958 ± 0.21
3,FLTKYFVKQPYPTRREIEKLAASLWLWKSDIASHFSNKRKK,-0.841 ± 0.11
4,FLTKYFEKQPYPTRREIEKLAASLWLWKSDIASHFSNKRKK,-0.058 ± 0.14
5,FLTKYCNKQPYPTRREIEKLAASLWLWKSDIASHFSNKRKK,-0.223 ± 0.054
6,FLTKYTNKQPYPTRREIEKLAASLWLWKSDIASHFSNKRKK,-0.328 ± 0.056
7,FLTKYENKQPYPTRREIEKLAASLWLWKSDIASHFSNKRKK,-0.821 ± 0.18
8,FLTKYGNKQPYPTRREIEKLAASLWLWKSDIASHFSNKRKK,-0.442 ± 0.056
9,FLTKYSNKQPYPTRREIEKLAASLWLWKSDIASHFSNKRKK,-0.76 ± 0.068
10,FLTKYINKQPYPTRREIEKLAASLWLWKSDIASHFSNKRKK,-0.237 ± 0.059
11,FLTKYMNKQPYPTRREIEKLAASLWLWKSDIASHFSNKRKK,-0.209 ± 0.067
12,FLTKYDNKQPYPTRREIEKLAASLWLWKSDIASHFSNKRKK,-0.837 ± 0.085
13,FLTKYANKQPYPTRREIEKLAASLWLWKSDIASHFSNKRKK,-0.235 ± 0.05
14,FLTKYHNKQPYPTRREIEKLAASLWLWKSDIASHFSNKRKK,-0.794 ± 0.089
15,FLTKYPNKQPYPTRREIEKLAASLWLWKSDIASHFSNKRKK,-0.942 ± 0.071
16,FLTKYRNKQPYPTRREIEKLAASLWLWKSDIASHFSNKRKK,-0.163 ± 0.044
17,FLTKYYNKQPYPTRREIEKLAASLWLWKSDIASHFSNKRKK,-0.295 ± 0.07
18,FLTKYVNKQPYPTRREIEKLAASLWLWKSDIASHFSNKRKK,-0.369 ± 0.05
19,FLTKYLNKQPYPTRREIEKLAASLWLWKSDIASHFSNKRKK,-0.157 ± 0.045
20,FLTKYKNKQPYPTRREIEKLAASLWLWKSDIASHFSNKRKK,-0.098 ± 0.09
